This is an account of results in paper PMC8081665, “Structural and biochemical mechanisms of NLRP1 inhibition by DPP9” (Nature, 2021).

Like-named read-outs stand apart in the source and are kept apart here.

Data set [1] has as its target GST–rNLRP1 FIIND(S969A) (rat) (UniProt D9I2G3). Kind of data set: SEC; Superose 6 10/30, 10 mM Tris pH 8.0, 100 mM NaCl; purified GST–rNLRP1 FIIND(S969A)–rDPP9 complex incubated with fully processed rNLRP1 FIIND at a molar ratio of about 1:1 at 4 °C for 150 min. A general note: In gel filtration, larger molecules generally elute earlier.
For data set [2], the target named is rat DPP9 (rat). Nature of the data set: cryo-EM structure; purified complex after gel filtration, about 0.3 mg/ml in 25 mM Tris-HCl pH 8.0, 150 mM NaCl, 3 mM DTT; Titan Krios 300 kV.
Data set [3] concerns the target rat DPP9 (rat). The data set is described as above. The source holds these as a separate data set.
Target sequence in this assay (Q8BVG4 other isoform, or with tags, fused parts or gaps): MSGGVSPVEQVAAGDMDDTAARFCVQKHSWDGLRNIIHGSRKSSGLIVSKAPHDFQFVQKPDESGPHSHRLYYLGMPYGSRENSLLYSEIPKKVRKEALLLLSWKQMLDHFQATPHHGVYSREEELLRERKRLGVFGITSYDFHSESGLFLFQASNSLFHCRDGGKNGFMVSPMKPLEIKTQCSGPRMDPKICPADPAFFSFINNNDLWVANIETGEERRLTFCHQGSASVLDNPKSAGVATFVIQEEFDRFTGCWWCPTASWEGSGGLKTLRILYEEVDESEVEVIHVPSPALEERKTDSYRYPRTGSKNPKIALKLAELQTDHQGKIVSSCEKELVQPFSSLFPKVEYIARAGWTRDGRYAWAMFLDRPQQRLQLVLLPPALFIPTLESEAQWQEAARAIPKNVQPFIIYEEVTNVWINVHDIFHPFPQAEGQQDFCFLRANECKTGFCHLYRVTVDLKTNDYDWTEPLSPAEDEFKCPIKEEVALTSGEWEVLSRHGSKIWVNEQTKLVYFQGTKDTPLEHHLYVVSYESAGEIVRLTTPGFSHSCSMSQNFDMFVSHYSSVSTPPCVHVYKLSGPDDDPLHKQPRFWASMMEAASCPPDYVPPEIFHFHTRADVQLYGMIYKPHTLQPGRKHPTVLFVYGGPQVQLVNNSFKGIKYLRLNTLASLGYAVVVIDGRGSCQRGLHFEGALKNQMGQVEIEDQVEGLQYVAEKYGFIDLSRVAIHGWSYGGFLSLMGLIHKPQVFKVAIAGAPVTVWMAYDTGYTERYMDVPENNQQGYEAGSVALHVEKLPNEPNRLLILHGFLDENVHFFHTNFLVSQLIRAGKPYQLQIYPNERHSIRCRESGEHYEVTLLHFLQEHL
Data set [4] has as its target T1, UPA subdomain of the autocleaved rNLRP1 FIIND (rat, UniProt D9I2G3 969-1122).
T1 construct: rat NLRP1, from S969, the residue after the autocleavage site, to the end of the FIIND construct (1122); source: sf21 insect cells, purified; product of the autocleavage of rNLRP1 FIIND (822-1122)
T1 sequence (looked up): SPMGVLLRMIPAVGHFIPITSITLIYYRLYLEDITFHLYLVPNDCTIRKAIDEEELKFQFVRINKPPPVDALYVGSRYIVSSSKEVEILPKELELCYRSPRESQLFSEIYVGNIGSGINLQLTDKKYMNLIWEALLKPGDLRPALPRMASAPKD
Kind of data set: crystal structure; rNLRP1 FIIND at 8 mg/ml, hanging drop at 18 °C, 1.0 M ammonium sulfate, 0.1 M Bis-Tris pH 5.5, 1% PEG 3,350. The note with it: both partners purified.

Data set [5] concerns the molecule itself. Kind of data set: cryo-EM structure; purified complex after gel filtration, about 0.3 mg/ml in 25 mM Tris-HCl pH 8.0, 150 mM NaCl, 3 mM DTT; Titan Krios 300 kV.

As for rat DPP9 (enzyme), the stoichiometry N (usually a count of units in the complex or per binding partner) came out at 1 in data set [1] and 2 in the data set with rat DPP9 (rat) [2].

B1: rNLRP1 FIIND–CARD(S969A) (domain or fragment)
chain: GDKHMEPLGTDDDFWGPSGPVSTEVVDRERNLYRVRLPMAGSYHCPSTGLHFVVTRAVTIEIGFCAWSQFLHETPLQHSHMVAGPLFDIKAEHGAVTAVCLPHFVSLQEGKVDSSLFHVAHFQDHGMVLETPARVEPHFAVLENPSFAPMGVLLRMIPAVGHFIPITSITLIYYRLYLEDITFHLYLVPNDCTIRKAIDEEELKFQFVRINKPPPVDALYVGSRYIVSSSKEVEILPKELELCYRSPRESQLFSEIYVGNIGSGINLQLTDKKYMNLIWEALLKPGDLRPALPRMASAPKDAPALLHFVDQHREQLVARVTSVDPLLDKLHGLVLSEEDYETVRAEATNQDKMRKLFRGSRSWSWDCKDHFYQALKETHPHLIMDLLEKSGGVSVRL
Molecule B1 had a stoichiometry N with rat DPP9 (rat) [3] of 1.

B2: ZU5 subdomain of the autocleaved rNLRP1 FIIND (domain or fragment, rat, UniProt D9I2G3 822-968, looked up)
chain: GDKHMEPLGTDDDFWGPSGPVSTEVVDRERNLYRVRLPMAGSYHCPSTGLHFVVTRAVTIEIGFCAWSQFLHETPLQHSHMVAGPLFDIKAEHGAVTAVCLPHFVSLQEGKVDSSLFHVAHFQDHGMVLETPARVEPHFAVLENPSF
notes: rat NLRP1, from the start of the FIIND construct (822) to F968, the residue before the autocleavage site; source: sf21 insect cells, purified; product of the autocleavage of rNLRP1 FIIND (822-1122); not shown: GST, N-terminal, cleaved
On to B2, for which the binding result in data set [4] is reported as “binds”.

B3: full-length rat NLRP1 (natural protein, UniProt D9I2G3 1-1218, looked up)
chain: MEESQSKQESNTRVAQHGSQQDVDPTFQTKRALEKERSKPRPRPLPRVQLQSLPGWSSTSKDVPLSQLIREMDHESRRCIHRSKKKLDRSEHISQGTIPEIYEKRKETISHTQSMEQKYLFQNFTKLLLLQKCCPGGSEKLVRESWHPCVPEEGGHMIEIQDLFDPNLDTEKKPQLVIIEGAAGIGKSTLARQVKRAWDEGQLYRDRFQHVFFFSCRELAQCKQLSLAELIAQGQEVPTAPTRQILSRPEKLLFILDGIDEPAWVLEDQNPELCVHWSQAQPVHTLLGSLLGKSILPEASLMLTARTTALQKLVPSLGQPHRVEVLGFSEFERKDYFYKYFAKERNTIIDFNLIGSIPVLLTLCEVPWVCWLLCTCLEKQMQQGEVLSLTSQTTTALCLKYLSLTIPGQHLSTQLRTLCSLAAEGICQRRTLFSKSDLCKQGLAEDAIATFLKIGVLQRQPSSLSYSFAHLCLQEFFAAMSYILEDSEEAHGDMGNDRTVETLVERYGRQNLFEAPTVRFLLGLLNTREMREMENIFACKFPWETKLKLLQSIIGEPFCQPCHLGLFHCLYENQEEELLTETMLCFPLTASGPNHMEATVFQTNVKRLVIQTDMELMVVTFCITFSHVRSLRLKGKGQQEYKLTAPAMVLYRWTPISEASWKVLFSNLKCTRNLEELDLSGNPLSYSAVRSLCTALRQPGCRLKTLWLVDCGLTSRCCSFLASMLSAHSRLAELDLRLNDLGDNGVRQLCEGLRNPACNLSILRLDQASLSEQVITELRALETKNPKLFISSTWMSHMTMPTENTDGEESLTSSKQQQQQSGDKHMEPLGTDDDFWGPSGPVSTEVVDRERNLYRVRLPMAGSYHCPSTGLHFVVTRAVTIEIGFCAWSQFLHETPLQHSHMVAGPLFDIKAEHGAVTAVCLPHFVSLQEGKVDSSLFHVAHFQDHGMVLETPARVEPHFAVLENPSFSPMGVLLRMIPAVGHFIPITSITLIYYRLYLEDITFHLYLVPNDCTIRKAIDEEELKFQFVRINKPPPVDALYVGSRYIVSSSKEVEILPKELELCYRSPRESQLFSEIYVGNIGSGINLQLTDKKYMNLIWEALLKPGDLRPALPRMASAPKDAPALLHFVDQHREQLVARVTSVDPLLDKLHGLVLSEEDYETVRAEATNQDKMRKLFRGSRSWSWDCKDHFYQALKETHPHLIMDLLEKSGGVSVRL
notes: rat NLRP1, residues 1-1218, gene synthesized from GenBank HM060632.1; Autocleaves in the FIIND between F968 and S969; of the second copy only UPA is seen, and the abstract calls it a UPA-CARD fragment; also called rNLRP1; full-length rNLRP1; source: sf21 insect cells (baculovirus), co-expressed with rDPP9, purified (GS4B, PreScission, gel filtration); not shown: GST, N-terminal, cleaved
Molecule B3 came in with a stoichiometry N in the data set with rat DPP9 (rat) [3] of 2. In data set [5], the binding result is given as “binds”.
